According to patent US20100273722A1 (YALE UNIVERSITY, published 2010):
Residue numbers refer to the chain shown, from its start. No end group written: not given here.

Experiments:
[1] = biological target: the molecule itself; test: sedimentation equilibrium AUC, self-association (dimer), 25 C
[2] = biological target: the molecule itself; test: sedimentation equilibrium AUC, self-association, monomer-n-mer fit, 25 C
[3] = biological target: T1, human Hck (residues 77-137 of full-length kinase) SH3 domain-GST fusion protein (human, UniProt P08631 77-137); test: fluorescence polarization, 50 nM labeled peptide, SH3-GST titrated
T1 construct: range 77-137; also called Hck SH3
T1 sequence (P08631 77-137): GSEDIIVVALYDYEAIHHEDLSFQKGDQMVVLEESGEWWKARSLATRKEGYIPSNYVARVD

[4] = biological target: T2, human Lck (residues 62-128) SH3 domain-GST fusion (human, UniProt P06239 62-128); test: as above
T2 construct: range 62-128; also called Lck SH3
T2 sequence (P06239 62-128): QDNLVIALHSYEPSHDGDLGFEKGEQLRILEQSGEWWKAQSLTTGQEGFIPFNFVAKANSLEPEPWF

[5] = biological target: T3, human Lyn (residues 62-122) SH3 domain-GST fusion protein (human, UniProt P07948 62-122); test: as above
T3 construct: range 62-122; also called Lyn SH3
T3 sequence (P07948 62-122): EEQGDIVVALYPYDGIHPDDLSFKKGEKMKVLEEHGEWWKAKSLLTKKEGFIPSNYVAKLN

[6] = biological target: T4, human Fyn (residues 81-142) SH3 domain-GST fusion protein (human, UniProt P06241 81-142); test: as above
T4 construct: range 81-142; also called Fyn SH3
T4 sequence (P06241 81-142): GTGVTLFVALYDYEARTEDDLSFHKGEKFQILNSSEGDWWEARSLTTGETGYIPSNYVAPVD

[7] = biological target: T1, human Hck (residues 77-137 of …); test: fluorescence polarization, 50 nM labeled peptide, SH3-GST titrated; data above 50 micromolar target excluded from the fit
[8] = biological target: T3, human Lyn (residues 62-122) SH3 …; test: as above
[9] = biological target: the molecule itself; test: AUC, self-association, monomer/dimer/tetramer model, dimer term, 25 C; dimer term of the monomer/dimer/tetramer model, 25 C
[10] = biological target: the molecule itself; test: sedimentation equilibrium AUC, self-association (tetramer), 25 C

B1: avian pancreatic polypeptide (aPP) (peptide)
chain: GPSQPTYPGDDAPVEDLIRFYDNLQQYLNVVTRHRY
modifications: ends and bridges not checked
notes: Bought from American Peptide Company; entries are for its self-association (dimer); also called wt aPP
**Q.** What does the source list for B1?
**A.** Kd [1]: 4100 nM; lnKA (n = 2) [2]: 12.4

B2: PP2^Flu (designed binder)
chain: APPLPPRNRGDDAPVEDLIRFYDNLQQYLNVVTRHRYC
modifications: ends and bridges not checked; also: fluorescently labeled, site and dye not given here
notes: also called PP2 (fluorescently labeled)
**Q.** Which Kd [3] does the source give for B2 here?
**A.** Its Kd is 1300 nM.

**Q.** What about the Kd [4] of the same binder?
**A.** The Kd was 2700 nM.

**Q.** And the Kd [5]?
**A.** The Kd was 3700 nM.

**Q.** What about the Kd [6] of the same binder?
**A.** Its Kd is 14000 nM.

B3: PP3^Flu (designed binder)
chain: B2 chain with G10P, D11R
modifications: ends and bridges not checked; also: fluorescently labeled, site and dye not given here
notes: also called PP3 (fluorescently labeled)
**Q.** What does the source list for B3?
**A.** Kd [4]: 1430 nM; Kd [6]: 2100 nM; Kd [7]: 880 nM; Kd [8]: 1800 nM

B4: PP1^Flu (designed binder)
chain: B2 chain with R9P
modifications: ends and bridges not checked; also: fluorescently labeled, site and dye not given here
notes: also called PP1 (fluorescently labeled)
**Q.** For B4, which Kd [3] is on record?
**A.** Its Kd is 3800 nM.

**Q.** What about the Kd [4] of the same binder?
**A.** Its Kd is 40000 nM.

**Q.** And the Kd [5]?
**A.** The Kd was 4900 nM.

**Q.** And the Kd [6]?
**A.** The Kd was 25000 nM.

B5: aPP^Y21A (peptide)
chain: GPSQPTYPGDDAPVEDLIRFADNLQQYLNVVTRHRY-NH2
notes: Synthetic aPP variant; entries are for its self-association (dimer)
**Q.** Which Kd [1] does the source give for B5 here?
**A.** Its Kd is 1300 nM.

**Q.** What about the “lnKA (n = 2)” value [2] of the same binder?
**A.** Its value is 13.6.

B6: aPP^Y7AP13SV14P (peptide)
chain: GPSQPTAPGDDASPEDLIRFYDNLQQYLNVVTRHRY-NH2
notes: Synthetic aPP variant with the proline switch; entries are for its self-association (monomer/dimer/tetramer)
**Q.** Which Kd [9] does the source give for B6 here?
**A.** The Kd was 530000 nM.

B7: aPP^F20A (peptide)
chain: GPSQPTYPGDDAPVEDLIRAYDNLQQYLNVVTRHRY-NH2
notes: Synthetic aPP variant; entries are for its self-association (tetramer)
**Q.** Which results are given for B7?
**A.** Kd [10]: 0.076 nM; lnKA (n = 4) [2]: 23.3

B8: aPP^Y7AP13VV14P (peptide)
chain: GPSQPTAPGDDAVPEDLIRFYDNLQQYLNVVTRHRY-NH2
notes: Synthetic aPP variant; entries are for its self-association (tetramer); also called aPP^Y7AP13W14P
**Q.** With B8 as the binder, how does the Kd [10] read?
**A.** Its Kd is 0.00075 nM.

**Q.** What about the “lnKA (n = 4)” value [2] of the same binder?
**A.** The value was 27.9.

B9: aPP^Y7AT6E (peptide)
chain: GPSQPEAPGDDAPVEDLIRFYDNLQQYLNVVTRHRY-NH2
notes: entries are for its self-association (tetramer); also called aPP^Y7AAT6E
**Q.** With B9 as the binder, how does the Kd [10] read?
**A.** Its Kd is 0.0002 nM.

**Q.** What about the “lnKA (n = 4)” value [2] of the same binder?
**A.** Its value is 29.3.

B10: pancreatic peptide YY (PYY) (peptide)
chain: not shown
modifications: C-terminal carboxamide
notes: Synthetic; entries are for its self-association
**Q.** What does the source list for B10?
**A.** Kd [1]: 830000 nM; lnKA (n = 2) [2]: 7.09

B11: aPP^Y7AQ25R (peptide)
chain: GPSQPTAPGDDAPVEDLIRFYDNLRQYLNVVTRHRY-NH2
notes: as for B7
**Q.** How did the Kd [10] turn out when B11 was run?
**A.** Its Kd is 0.00018 nM.

**Q.** What about the “lnKA (n = 4)” value [2] of the same binder?
**A.** Its value is 29.3.

B12: aPP^Y7A (peptide)
chain: GPSQPTAPGDDAPVEDLIRFYDNLQQYLNVVTRHRY-NH2
notes: as for B7
**Q.** With B12 as the binder, how does the Kd [10] read?
**A.** Its Kd is 0.0039 nM.

**Q.** And the “lnKA (n = 4)” value [2]?
**A.** The value was 26.3.
